In this experiment the target is Mycoplasma hyopneumoniae enolase (Mhp Eno, MHP168_271) (Mycoplasma hyopneumoniae). The experiment can be described thus: crystal structure.

What is called stoichiometry N is a count of units in the complex or per binding partner. The substance “Mycoplasma hyopneumoniae enolase (Mhp Eno, MHP168_271) (enzyme)” had a stoichiometry N of 8.

The values above are taken from article PMC6585157.
